The Ki is a dissociation constant, usually derived from enzyme kinetics or from competition with a known ligand.

*1 amine or outer side, *2 acyl side, *3 side chain or, on linkers, in order; H or OH if unused. Side-chain parts run from the residue outwards. The star is where a group is joined. C18 diacid = O=C(O)CCCCCCCCCCCCCCCCC(=O)*; γGlu = O=C(O)[C@H](CCC(=O)[*:2])N[*:1]; Isovaleryl = CC(C)CC(=O)*; Ahx = NCCCCCC(=O)O

Sequences and labels used below:
B1: Compound 125 (peptide)
peptide: Isovaleryl-APEK([Ahx-γGlu-C18 diacid])PEEDASPEELQRYYVELRHYYNWLTRQRY-NH2
SMILES: CC(C)CC(=O)N[C@@H](C)C(=O)N1CCC[C@H]1C(=O)N[C@@H](CCC(=O)O)C(=O)N[C@@H](CCCCNC(=O)CCCCCNC(=O)CC[C@H](NC(=O)CCCCCCCCCCCCCCCCC(=O)O)C(=O)O)C(=O)N1CCC[C@H]1C(=O)N[C@@H](CCC(=O)O)C(=O)N[C@@H](CCC(=O)O)C(=O)N[C@@H](CC(=O)O)C(=O)N[C@@H](C)C(=O)N[C@@H](CO)C(=O)N1CCC[C@H]1C(=O)N[C@@H](CCC(=O)O)C(=O)N[C@@H](CCC(=O)O)C(=O)N[C@@H](CC(C)C)C(=O)N[C@@H](CCC(N)=O)C(=O)N[C@@H](CCCNC(=N)N)C(=O)N[C@@H](Cc1ccc(O)cc1)C(=O)N[C@@H](Cc1ccc(O)cc1)C(=O)N[C@H](C(=O)N[C@@H](CCC(=O)O)C(=O)N[C@@H](CC(C)C)C(=O)N[C@@H](CCCNC(=N)N)C(=O)N[C@@H](Cc1c[nH]cn1)C(=O)N[C@@H](Cc1ccc(O)cc1)C(=O)N[C@@H](Cc1ccc(O)cc1)C(=O)N[C@@H](CC(N)=O)C(=O)N[C@@H](Cc1c[nH]c2ccccc12)C(=O)N[C@@H](CC(C)C)C(=O)N[C@H](C(=O)N[C@@H](CCCNC(=N)N)C(=O)N[C@@H](CCC(N)=O)C(=O)N[C@@H](CCCNC(=N)N)C(=O)N[C@@H](Cc1ccc(O)cc1)C(N)=O)[C@@H](C)O)C(C)C
B2: Compound 126 (peptide)
peptide: Isovaleryl-APEK([Ahx-γGlu-C18 diacid])PEEDAEPEELQRYYVSLRHYYNWLTRQRY-NH2
SMILES: CC(C)CC(=O)N[C@@H](C)C(=O)N1CCC[C@H]1C(=O)N[C@@H](CCC(=O)O)C(=O)N[C@@H](CCCCNC(=O)CCCCCNC(=O)CC[C@H](NC(=O)CCCCCCCCCCCCCCCCC(=O)O)C(=O)O)C(=O)N1CCC[C@H]1C(=O)N[C@@H](CCC(=O)O)C(=O)N[C@@H](CCC(=O)O)C(=O)N[C@@H](CC(=O)O)C(=O)N[C@@H](C)C(=O)N[C@@H](CCC(=O)O)C(=O)N1CCC[C@H]1C(=O)N[C@@H](CCC(=O)O)C(=O)N[C@@H](CCC(=O)O)C(=O)N[C@@H](CC(C)C)C(=O)N[C@@H](CCC(N)=O)C(=O)N[C@@H](CCCNC(=N)N)C(=O)N[C@@H](Cc1ccc(O)cc1)C(=O)N[C@@H](Cc1ccc(O)cc1)C(=O)N[C@H](C(=O)N[C@@H](CO)C(=O)N[C@@H](CC(C)C)C(=O)N[C@@H](CCCNC(=N)N)C(=O)N[C@@H](Cc1c[nH]cn1)C(=O)N[C@@H](Cc1ccc(O)cc1)C(=O)N[C@@H](Cc1ccc(O)cc1)C(=O)N[C@@H](CC(N)=O)C(=O)N[C@@H](Cc1c[nH]c2ccccc12)C(=O)N[C@@H](CC(C)C)C(=O)N[C@H](C(=O)N[C@@H](CCCNC(=N)N)C(=O)N[C@@H](CCC(N)=O)C(=O)N[C@@H](CCCNC(=N)N)C(=O)N[C@@H](Cc1ccc(O)cc1)C(N)=O)[C@@H](C)O)C(C)C
B3: Compound 127 (peptide)
peptide: Isovaleryl-APEK([Ahx-γGlu-C18 diacid])PEAAAEPEELQRYYVALRHYYNWLTRQRY-NH2
SMILES: CC(C)CC(=O)N[C@@H](C)C(=O)N1CCC[C@H]1C(=O)N[C@@H](CCC(=O)O)C(=O)N[C@@H](CCCCNC(=O)CCCCCNC(=O)CC[C@H](NC(=O)CCCCCCCCCCCCCCCCC(=O)O)C(=O)O)C(=O)N1CCC[C@H]1C(=O)N[C@@H](CCC(=O)O)C(=O)N[C@@H](C)C(=O)N[C@@H](C)C(=O)N[C@@H](C)C(=O)N[C@@H](CCC(=O)O)C(=O)N1CCC[C@H]1C(=O)N[C@@H](CCC(=O)O)C(=O)N[C@@H](CCC(=O)O)C(=O)N[C@@H](CC(C)C)C(=O)N[C@@H](CCC(N)=O)C(=O)N[C@@H](CCCNC(=N)N)C(=O)N[C@@H](Cc1ccc(O)cc1)C(=O)N[C@@H](Cc1ccc(O)cc1)C(=O)N[C@H](C(=O)N[C@@H](C)C(=O)N[C@@H](CC(C)C)C(=O)N[C@@H](CCCNC(=N)N)C(=O)N[C@@H](Cc1c[nH]cn1)C(=O)N[C@@H](Cc1ccc(O)cc1)C(=O)N[C@@H](Cc1ccc(O)cc1)C(=O)N[C@@H](CC(N)=O)C(=O)N[C@@H](Cc1c[nH]c2ccccc12)C(=O)N[C@@H](CC(C)C)C(=O)N[C@H](C(=O)N[C@@H](CCCNC(=N)N)C(=O)N[C@@H](CCC(N)=O)C(=O)N[C@@H](CCCNC(=N)N)C(=O)N[C@@H](Cc1ccc(O)cc1)C(N)=O)[C@@H](C)O)C(C)C
B4: Compound 131 (peptide)
peptide: Isovaleryl-APEK([Ahx-γGlu-C18 diacid])PEADAEPEEIQRYYVALRHYYNWLTRQRY-NH2
SMILES: CC[C@H](C)[C@H](NC(=O)[C@H](CCC(=O)O)NC(=O)[C@H](CCC(=O)O)NC(=O)[C@@H]1CCCN1C(=O)[C@H](CCC(=O)O)NC(=O)[C@H](C)NC(=O)[C@H](CC(=O)O)NC(=O)[C@H](C)NC(=O)[C@H](CCC(=O)O)NC(=O)[C@@H]1CCCN1C(=O)[C@H](CCCCNC(=O)CCCCCNC(=O)CC[C@H](NC(=O)CCCCCCCCCCCCCCCCC(=O)O)C(=O)O)NC(=O)[C@H](CCC(=O)O)NC(=O)[C@@H]1CCCN1C(=O)[C@H](C)NC(=O)CC(C)C)C(=O)N[C@@H](CCC(N)=O)C(=O)N[C@@H](CCCNC(=N)N)C(=O)N[C@@H](Cc1ccc(O)cc1)C(=O)N[C@@H](Cc1ccc(O)cc1)C(=O)N[C@H](C(=O)N[C@@H](C)C(=O)N[C@@H](CC(C)C)C(=O)N[C@@H](CCCNC(=N)N)C(=O)N[C@@H](Cc1c[nH]cn1)C(=O)N[C@@H](Cc1ccc(O)cc1)C(=O)N[C@@H](Cc1ccc(O)cc1)C(=O)N[C@@H](CC(N)=O)C(=O)N[C@@H](Cc1c[nH]c2ccccc12)C(=O)N[C@@H](CC(C)C)C(=O)N[C@H](C(=O)N[C@@H](CCCNC(=N)N)C(=O)N[C@@H](CCC(N)=O)C(=O)N[C@@H](CCCNC(=N)N)C(=O)N[C@@H](Cc1ccc(O)cc1)C(N)=O)[C@@H](C)O)C(C)C
B5: Compound 130 (peptide)
peptide: Isovaleryl-APEK([Ahx-γGlu-C18 diacid])PEEDATPEELQLYYVSLRHYYNWLTRQRY-NH2
SMILES: CC(C)CC(=O)N[C@@H](C)C(=O)N1CCC[C@H]1C(=O)N[C@@H](CCC(=O)O)C(=O)N[C@@H](CCCCNC(=O)CCCCCNC(=O)CC[C@H](NC(=O)CCCCCCCCCCCCCCCCC(=O)O)C(=O)O)C(=O)N1CCC[C@H]1C(=O)N[C@@H](CCC(=O)O)C(=O)N[C@@H](CCC(=O)O)C(=O)N[C@@H](CC(=O)O)C(=O)N[C@@H](C)C(=O)N[C@H](C(=O)N1CCC[C@H]1C(=O)N[C@@H](CCC(=O)O)C(=O)N[C@@H](CCC(=O)O)C(=O)N[C@@H](CC(C)C)C(=O)N[C@@H](CCC(N)=O)C(=O)N[C@@H](CC(C)C)C(=O)N[C@@H](Cc1ccc(O)cc1)C(=O)N[C@@H](Cc1ccc(O)cc1)C(=O)N[C@H](C(=O)N[C@@H](CO)C(=O)N[C@@H](CC(C)C)C(=O)N[C@@H](CCCNC(=N)N)C(=O)N[C@@H](Cc1c[nH]cn1)C(=O)N[C@@H](Cc1ccc(O)cc1)C(=O)N[C@@H](Cc1ccc(O)cc1)C(=O)N[C@@H](CC(N)=O)C(=O)N[C@@H](Cc1c[nH]c2ccccc12)C(=O)N[C@@H](CC(C)C)C(=O)N[C@H](C(=O)N[C@@H](CCCNC(=N)N)C(=O)N[C@@H](CCC(N)=O)C(=O)N[C@@H](CCCNC(=N)N)C(=O)N[C@@H](Cc1ccc(O)cc1)C(N)=O)[C@@H](C)O)C(C)C)[C@@H](C)O
B6: Compound 132 (peptide)
peptide: Isovaleryl-APEK([Ahx-γGlu-C18 diacid])PEADATPEELQRYYVSLRHYYNWLTRQRY-NH2
SMILES: CC(C)CC(=O)N[C@@H](C)C(=O)N1CCC[C@H]1C(=O)N[C@@H](CCC(=O)O)C(=O)N[C@@H](CCCCNC(=O)CCCCCNC(=O)CC[C@H](NC(=O)CCCCCCCCCCCCCCCCC(=O)O)C(=O)O)C(=O)N1CCC[C@H]1C(=O)N[C@@H](CCC(=O)O)C(=O)N[C@@H](C)C(=O)N[C@@H](CC(=O)O)C(=O)N[C@@H](C)C(=O)N[C@H](C(=O)N1CCC[C@H]1C(=O)N[C@@H](CCC(=O)O)C(=O)N[C@@H](CCC(=O)O)C(=O)N[C@@H](CC(C)C)C(=O)N[C@@H](CCC(N)=O)C(=O)N[C@@H](CCCNC(=N)N)C(=O)N[C@@H](Cc1ccc(O)cc1)C(=O)N[C@@H](Cc1ccc(O)cc1)C(=O)N[C@H](C(=O)N[C@@H](CO)C(=O)N[C@@H](CC(C)C)C(=O)N[C@@H](CCCNC(=N)N)C(=O)N[C@@H](Cc1c[nH]cn1)C(=O)N[C@@H](Cc1ccc(O)cc1)C(=O)N[C@@H](Cc1ccc(O)cc1)C(=O)N[C@@H](CC(N)=O)C(=O)N[C@@H](Cc1c[nH]c2ccccc12)C(=O)N[C@@H](CC(C)C)C(=O)N[C@H](C(=O)N[C@@H](CCCNC(=N)N)C(=O)N[C@@H](CCC(N)=O)C(=O)N[C@@H](CCCNC(=N)N)C(=O)N[C@@H](Cc1ccc(O)cc1)C(N)=O)[C@@H](C)O)C(C)C)[C@@H](C)O

In this assay the target is T1, human NPY2 receptor (human, UniProt P49146 1-381).
T1 construct: whole, on cells; also called hNPY2-R; hNPY2R
T1 sequence (looked up): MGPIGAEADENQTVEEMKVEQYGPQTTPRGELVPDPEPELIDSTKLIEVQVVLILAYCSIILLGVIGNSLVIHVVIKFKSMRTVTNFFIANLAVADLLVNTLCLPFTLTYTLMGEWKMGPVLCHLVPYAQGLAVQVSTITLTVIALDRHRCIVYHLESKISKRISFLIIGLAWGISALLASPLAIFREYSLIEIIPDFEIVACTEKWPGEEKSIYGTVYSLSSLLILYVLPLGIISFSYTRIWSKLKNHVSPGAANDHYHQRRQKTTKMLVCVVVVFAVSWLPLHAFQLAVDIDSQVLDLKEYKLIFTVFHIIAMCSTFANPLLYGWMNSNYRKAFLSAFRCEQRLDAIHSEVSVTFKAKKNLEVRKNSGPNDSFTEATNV
In words: RLB: displacement of 125I-PYY(1-36) from hNPY2R membranes. On the technique in general: In a radioligand displacement assay an active substance lowers the binding of a labelled ligand.
B1 yielded a Ki of 3.37 nM.

B2 had a Ki of 4.42 nM. The same measure for B3: 3.36 nM. For B4 the value was 1.54 nM; for B5, 9.36 nM; for B6, 2.75 nM.

The values above are taken from US20260015399A1 (Boehringer Ingelheim, published 2026).
